Source: the supplement of paper PMC6755084

Test system: F1*sub RNA substrate (template-directed ligation)
Test: fraction ligated after 30 min (ligated reads / total reads); higher = more ligase activity; sequences stand for … in GAGACCGCAACTGAAAAGTTGT…AGTTCTGCACGTAGAAGCAAAAGGC
Settings: 42 °C
Summary of the method: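 Ribozyme variants were transcribed with T7 from PCR-amplified oligo-pool templates and gel-purified. Ligated and unligated bands, separated on gel, were reverse transcribed with barcoded primers and sequenced on a MiSeq, with core bases filtered at quality ≥20. Fraction ligated per variant was computed as ligated reads divided by total reads.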

| Sequence | fraction ligated |
| --- | --- |
| TATCACGTCGTAAACACTTTGGATGGGTTGA [3d1299] | 0.787 |
| TATCACGTCGTAAGAACTTTGGATGGGTTGA [3d1301] | 0.825 |
| TATCACGTCGTAAGACACTTGGATGGGTTGA [3d1304] | 0.81 |
| TATCACGTCGTAAGACACTTTGATGGGTTGA [3d1305] | 0.777 |
| TATCACGTCGTAAGACACTTTGGAGGGTTGA [3d1307] | 0.104 |
| TATCACGTCGTAAGACACTTTGGATGGGTTA [3d1309] | 0.734 |
| TATCACGTCGTAAGACACTTTGGATGGGTTG [3d1310] | 0.782 |
| TATCACGTCGTAAGACACTTTGGATGGGTTGA [2d128] | 0.791 |
| TATCACGTCGTAAGACACTTTGGATGGTTGA [3d1308] | 0.361 |
| TATCACGTCGTAAGACACTTTGGTGGGTTGA [3d1306] | 0.721 |
| TATCACGTCGTAAGACATTTGGATGGGTTGA [3d1303] | 0.807 |
| TATCACGTCGTAAGACCTTTGGATGGGTTGA [3d1302] | 0.786 |
| TATCACGTCGTAAGCACTTTGGATGGGTTGA [3d1300] | 0.768 |
| TATCACGTCGTAGACACTTTGGATGGGTTGA [3d1298] | 0.801 |
| TATCACGTCTAAGACACTTTGGATGGGTTGA [3d1296] | 0.772 |
| TATCACGTGTAAGACACTTTGGATGGGTTGA [3d1295] | 0.829 |
| TATCACTCGTAAGACACTTTGGATGGGTTGA [3d1293] | 0.783 |
| TATCACTGCGAAGACACTTTGGATGGGTTGA [3d1329] | 0.831 |
| TATCACTGCGTAAACACTTTGGATGGGTTGA [3d1331] | 0.838 |
| TATCACTGCGTAAGAACTTTGGATGGGTTGA [3d1333] | 0.842 |
| TATCACTGCGTAAGACACTTGGATGGGTTGA [3d1336] | 0.793 |
| TATCACTGCGTAAGACACTTTGATGGGTTGA [3d1337] | 0.763 |
| TATCACTGCGTAAGACACTTTGGAGGGTTGA [3d1339] | 0.0829 |

| Sequence | fraction ligated |
| --- | --- |
| TATCACTGCGTAAGACACTTTGGATGGGTTA [3d1341] | 0.803 |
| TATCACTGCGTAAGACACTTTGGATGGGTTG [3d1342] | 0.834 |
| TATCACTGCGTAAGACACTTTGGATGGGTTGA [2d130] | 0.851 |
| TATCACTGCGTAAGACACTTTGGATGGTTGA [3d1340] | 0.15 |
| TATCACTGCGTAAGACACTTTGGTGGGTTGA [3d1338] | 0.119 |
| TATCACTGCGTAAGACATTTGGATGGGTTGA [3d1335] | 0.854 |
| TATCACTGCGTAAGACCTTTGGATGGGTTGA [3d1334] | 0.857 |
| TATCACTGCGTAAGCACTTTGGATGGGTTGA [3d1332] | 0.826 |
| TATCACTGCGTAAGCCTTTGGATGGGTTGA [s2] | 0.814 |
| TATCACTGCGTAGACACTTTGGATGGGTTGA [3d1330] | 0.862 |
| TATCACTGCTAAGACACTTTGGATGGGTTGA [3d1328] | 0.81 |
| TATCACTGGTAAGACACTTTGGATGGGTTGA [3d1327] | 0.828 |
| TATCACTGTCAAGACACTTTGGATGGGTTGA [3d1358] | 0.817 |
| TATCACTGTCGAAACACTTTGGATGGGTTGA [3d1373] | 0.83 |
| TATCACTGTCGAAGAACTTTGGATGGGTTGA [3d1375] | 0.846 |
| TATCACTGTCGAAGACACTTGGATGGGTTGA [3d1378] | 0.812 |
| TATCACTGTCGAAGACACTTTGATGGGTTGA [3d1379] | 0.75 |
| TATCACTGTCGAAGACACTTTGGAGGGTTGA [3d1381] | 0.104 |
| TATCACTGTCGAAGACACTTTGGATGGGTTA [3d1383] | 0.75 |
| TATCACTGTCGAAGACACTTTGGATGGGTTG [3d1384] | 0.829 |
| TATCACTGTCGAAGACACTTTGGATGGGTTGA [2d133] | 0.835 |
| TATCACTGTCGAAGACACTTTGGATGGTTGA [3d1382] | 0.336 |
| TATCACTGTCGAAGACACTTTGGTGGGTTGA [3d1380] | 0.369 |

| Sequence | fraction ligated |
| --- | --- |
| TATCACTGTCGAAGACATTTGGATGGGTTGA [3d1377] | 0.841 |
| TATCACTGTCGAAGACCTTTGGATGGGTTGA [3d1376] | 0.798 |
| TATCACTGTCGAAGCACTTTGGATGGGTTGA [3d1374] | 0.826 |
| TATCACTGTCGAGACACTTTGGATGGGTTGA [3d1372] | 0.826 |
| TATCACTGTCGTAAAACTTTGGATGGGTTGA [3d1398] | 0.842 |
| TATCACTGTCGTAAACACTTGGATGGGTTGA [3d1401] | 0.794 |
| TATCACTGTCGTAAACACTTTGATGGGTTGA [3d1402] | 0.669 |
| TATCACTGTCGTAAACACTTTGGAGGGTTGA [3d1404] | 0.0511 |
| TATCACTGTCGTAAACACTTTGGATGGGTTA [3d1406] | 0.761 |
| TATCACTGTCGTAAACACTTTGGATGGGTTG [3d1407] | 0.83 |
| TATCACTGTCGTAAACACTTTGGATGGTTGA [3d1405] | 0.166 |
| TATCACTGTCGTAAACACTTTGGTGGGTTGA [3d1403] | 0.086 |
| TATCACTGTCGTAAACATTTGGATGGGTTGA [3d1400] | 0.822 |
| TATCACTGTCGTAAACCTTTGGATGGGTTGA [3d1399] | 0.806 |
| TATCACTGTCGTAACACTTTGGATGGGTTGA [3d1386] | 0.826 |
| TATCACTGTCGTAAGAACTTGGATGGGTTGA [3d1419] | 0.847 |
| TATCACTGTCGTAAGAACTTTGATGGGTTGA [3d1420] | 0.652 |
| TATCACTGTCGTAAGAACTTTGGAGGGTTGA [3d1422] | 0.0317 |
| TATCACTGTCGTAAGAACTTTGGATGGGTTA [3d1424] | 0.851 |
| TATCACTGTCGTAAGAACTTTGGATGGGTTG [3d1425] | 0.87 |
| TATCACTGTCGTAAGAACTTTGGATGGTTGA [3d1423] | 0.26 |
| TATCACTGTCGTAAGAACTTTGGTGGGTTGA [3d1421] | 0.079 |
| TATCACTGTCGTAAGAATTTGGATGGGTTGA [3d1418] | 0.804 |

| Sequence | fraction ligated |
| --- | --- |
| TATCACTGTCGTAAGACACTGGATGGGTTGA [3d1440] | 0.824 |
| TATCACTGTCGTAAGACACTTGATGGGTTGA [3d1441] | 0.77 |
| TATCACTGTCGTAAGACACTTGGAGGGTTGA [3d1443] | 0.0736 |
| TATCACTGTCGTAAGACACTTGGATGGGTTA [3d1445] | 0.775 |
| TATCACTGTCGTAAGACACTTGGATGGGTTG [3d1446] | 0.807 |
| TATCACTGTCGTAAGACACTTGGATGGTTGA [3d1444] | 0.382 |
| TATCACTGTCGTAAGACACTTGGTGGGTTGA [3d1442] | 0.692 |
| TATCACTGTCGTAAGACACTTTATGGGTTGA [3d1447] | 0.0197 |
| TATCACTGTCGTAAGACACTTTGAGGGTTGA [3d1449] | 0.0155 |
| TATCACTGTCGTAAGACACTTTGATGGGTTA [3d1451] | 0.351 |
| TATCACTGTCGTAAGACACTTTGATGGGTTG [3d1452] | 0.754 |
| TATCACTGTCGTAAGACACTTTGATGGTTGA [3d1450] | 0.0354 |
| TATCACTGTCGTAAGACACTTTGGAGGGTTA [3d1458] | 0.0132 |
| TATCACTGTCGTAAGACACTTTGGAGGGTTG [3d1459] | 0.0454 |
| TATCACTGTCGTAAGACACTTTGGAGGTTGA [3d1457] | 0.0147 |
| TATCACTGTCGTAAGACACTTTGGATGGGTT [3d1462] | 0.365 |
| TATCACTGTCGTAAGACACTTTGGATGGGTTA [2d145] | 0.773 |
| TATCACTGTCGTAAGACACTTTGGATGGGTTG [2d146] | 0.798 |
| TATCACTGTCGTAAGACACTTTGGATGGGTTGA [1d7] | 0.806 |
| TATCACTGTCGTAAGACACTTTGGATGGTTA [3d1460] | 0.272 |
| TATCACTGTCGTAAGACACTTTGGATGGTTG [3d1461] | 0.33 |
| TATCACTGTCGTAAGACACTTTGGATGGTTGA [2d144] | 0.513 |
| TATCACTGTCGTAAGACACTTTGGGGGTTGA [3d1453] | 0.0319 |

| Sequence | fraction ligated |
| --- | --- |
| TATCACTGTCGTAAGACACTTTGGTGGGTTA [3d1455] | 0.0411 |
| TATCACTGTCGTAAGACACTTTGGTGGGTTG [3d1456] | 0.343 |
| TATCACTGTCGTAAGACACTTTGGTGGTTGA [3d1454] | 0.0276 |
| TATCACTGTCGTAAGACACTTTGTGGGTTGA [3d1448] | 0.0145 |
| TATCACTGTCGTAAGACATTGGATGGGTTGA [3d1433] | 0.818 |
| TATCACTGTCGTAAGACATTTGATGGGTTGA [3d1434] | 0.79 |
| TATCACTGTCGTAAGACATTTGGAGGGTTGA [3d1436] | 0.431 |
| TATCACTGTCGTAAGACATTTGGATGGGTTA [3d1438] | 0.792 |
| TATCACTGTCGTAAGACATTTGGATGGGTTG [3d1439] | 0.82 |
| TATCACTGTCGTAAGACATTTGGATGGTTGA [3d1437] | 0.606 |
| TATCACTGTCGTAAGACATTTGGTGGGTTGA [3d1435] | 0.752 |
| TATCACTGTCGTAAGACCTTGGATGGGTTGA [3d1426] | 0.809 |
| TATCACTGTCGTAAGACCTTTGATGGGTTGA [3d1427] | 0.773 |
| TATCACTGTCGTAAGACCTTTGGAGGGTTGA [3d1429] | 0.133 |
| TATCACTGTCGTAAGACCTTTGGATGGGTTA [3d1431] | 0.808 |
| TATCACTGTCGTAAGACCTTTGGATGGGTTG [3d1432] | 0.835 |
| TATCACTGTCGTAAGACCTTTGGATGGTTGA [3d1430] | 0.628 |
| TATCACTGTCGTAAGACCTTTGGTGGGTTGA [3d1428] | 0.441 |
| TATCACTGTCGTAAGACTTTGGATGGGTTGA [3d1408] | 0.856 |
